Test results from PMC4043579 (Reproduction (Cambridge, England), 2014).

Target: T1, mouse gremlin-2 (GREM2; PRDC) (mouse, UniProt O88273 22-168)
T1 sequence (looked up): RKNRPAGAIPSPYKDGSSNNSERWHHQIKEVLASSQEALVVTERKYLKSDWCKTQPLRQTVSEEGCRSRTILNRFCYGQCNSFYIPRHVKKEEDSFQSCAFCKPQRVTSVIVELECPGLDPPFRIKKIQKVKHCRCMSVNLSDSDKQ
Assay: co-IP

B1: human anti-Müllerian hormone (AMH) (ligand, UniProt P03971 452-560, looked up)
chain: SAGATAADGPCALRELSVDLRAERSVLIPETYQANNCQGVCGWPQSDRNPRYGNHVVLLLKMQVRGAALARPPCCVPTAYAGKLLISLSEERISAHHVPNMVATECGCR
  binding result: binds
